Data on 29 sequences can be found in the Immune Epitope Database (IEDB).

pKd: −log10 of the molar value.

For experiment [1], the target named is HLA-A*29:02. The experiment is described as follows: IEDB peptide-MHC binding, purified MHC/competitive/fluorescence; filed as Kd, often an IC50 or EC50 that approximates it; ≥ and ≤ were set here for values at or beyond the usual limits of such assays.
The target of experiment [2] is HLA-B*08:01. The experiment is described as follows: IEDB peptide-MHC binding, purified MHC/competitive/radioactivity; filed as Kd, often an IC50 or EC50 that approximates it; ≥ and ≤ were set here for values at or beyond the usual limits of such assays. Particulars: source organism: Vaccinia virus WR.
The target of experiment [3] is HLA-B*15:01. The experiment is described as above. The settings on record: source organism: Vaccinia virus WR.
The next experiment concerns the target HLA-A*30:01. Described as above. Particulars: source organism: Vaccinia virus WR.
The target in the next experiment is HLA-B*15:03. Described as above.
In a further experiment the target is HLA-A*32:01. The description is as above.
Another experiment addresses HLA-B*07:02. The experiment is described as follows: IEDB peptide-MHC binding, purified MHC/direct/fluorescence; filed as Kd, often an IC50 or EC50 that approximates it; ≥ and ≤ were set here for values at or beyond the usual limits of such assays.
The next experiment deals with HLA-B*27:05. The experiment is described as above.
The target of a further experiment is HLA-A*31:01. The description is as above.
The target of a further experiment is HLA-B*44:02. Described as above.
The next experiment has as its target HLA-B*40:01. The experiment is described as above.
In another experiment the target is HLA-A*11:01. The description is as above.
The target of the next experiment is HLA-A*01:01. The description is as above.
The next experiment addresses HLA-A*69:01. The description is as above.
The target of experiment [4] is HLA-A*03:01. Described as above.
The target in another experiment is HLA-B*39:01. The experiment is described as above.
In a further experiment the target is HLA-B*58:01. The description is as above.
In the next experiment the target is HLA-B*46:01. The description is as above.
For experiment [5], the target named is HLA-B*15:01. Described as above.
In experiment [6] the target is HLA-A*29:02. The experiment is described as above.
Another experiment has as its target HLA-B*57:01. Described as above.
A further experiment deals with HLA-B*35:01. The experiment is described as follows: IEDB peptide-MHC binding, purified MHC/competitive/fluorescence; filed as Kd, often an IC50 or EC50 that approximates it; ≥ and ≤ were set here for values at or beyond the usual limits of such assays.
The target of experiment [7] is HLA-A*26:01. Described as above. Particulars: source organism: Salmonella enterica subsp. enterica serovar Typhi.
For experiment [8], the target named is HLA-B*15:01. The experiment is described as above.
Experiment [9] has as its target HLA-A*03:01. The description is as above.
A further experiment concerns the target HLA-A*68:02. Described as above. Particulars: source organism: Bacillus anthracis str. A0488.
For another experiment, the target named is HLA-B*18:01. The experiment is described as follows: IEDB peptide-MHC binding, purified MHC/direct/fluorescence; filed as Kd, often an IC50 or EC50 that approximates it; ≥ and ≤ were set here for values at or beyond the usual limits of such assays. The settings on record: source organism: Mycobacterium avium 104.
For a further experiment, the target named is HLA-A*02:01. The description is as above.
The next experiment addresses HLA-B*48:01. The description is as above. Particulars: source organism: Mycobacterium avium 104.
Experiment [10] concerns the target HLA-B*08:01. The description is as above.
Experiment [11] concerns the target HLA-A*26:01. The experiment is described as above. The settings on record: source organism: Yersinia pestis Nepal516.
Where [12] appears, read: source organism: Vaccinia virus WR.
[13] abbreviates: source organism: Mycobacterium tuberculosis.
Where [14] appears, read: source organism: Salmonella enterica subsp. enterica serovar Typhi.
The mark [15] stands for this setting: source organism: Mycobacterium tuberculosis variant bovis.
Setting [16] is: source organism: Vaccinia virus Copenhagen.
The mark [17] stands for this setting: source organism: Mycobacterium avium 104.
[18] abbreviates: source organism: Yersinia pestis.
[19] abbreviates: source organism: Yersinia pestis Nepal516.

For the sequence SMIDNSHLE, the pKd (commonly the negative decadic logarithm of the Kd, by convention in mol/L) in the experiment with HLA-A*29:02 [1] (source organism: Cryptosporidium parvum Iowa II) was 7.17.
Turning to VMVTSKPLF, the pKd with HLA-B*08:01 [2] was 5.45; in the experiment with HLA-B*15:01 [3], 7.80; with HLA-A*30:01 it was 4.81; in the experiment with HLA-B*15:03 (setting [12]), 8.06; with HLA-A*32:01 (setting [12]), 4.74.
Regarding QKMHNHYAY, the pKd with HLA-A*29:02 [1] (source organism: Escherichia coli HS) is 7.70.
In the case of FHSRFVQAL, the pKd with HLA-B*07:02 (setting [13]), with HLA-B*27:05 (setting [13]), with HLA-A*31:01 (setting [13]), in the experiment with HLA-B*44:02 (setting [13]), with HLA-B*40:01 (setting [13]) and with HLA-A*11:01 (setting [13]) was at most 4.70 throughout. Besides, the pKd with HLA-A*01:01 (setting [13]) was at most 4.70; in the experiment with HLA-A*69:01 (setting [13]), at most 4.70; in the experiment with HLA-A*03:01 [4] (setting [13]), at most 4.70; with HLA-B*39:01 (setting [13]), 7.40; in the experiment with HLA-B*58:01 (setting [13]) it was at most 4.70; with HLA-B*46:01 (setting [13]) it was at most 4.70. The pKd in the experiment with HLA-B*15:01 [5] (setting [13]), with HLA-A*29:02 [6] (setting [13]) and in the experiment with HLA-B*57:01 (setting [13]) was at most 4.70 in each case.
As for FAHDDRYLY, the pKd in the experiment with HLA-B*35:01 (setting [14]) is 9.70; with HLA-A*26:01 [7], 7.26; with HLA-B*15:01 [8] (setting [14]) it was 6.70.
In the experiment with HLA-B*39:01 (source organism: Influenza A virus (A/Cameron/1946(H1N1))), SNENGGPPL showed a pKd of at most 4.70.
Turning to ATMATRRGY, the pKd in the experiment with HLA-A*03:01 [9] (source organism: Escherichia coli) is 6.90.
With SIYFLRGNH, in the experiment with HLA-A*03:01 [9] (source organism: Entamoeba histolytica HM-1:IMSS), the pKd is at most 4.70.
For the sequence MMVSTENNL, the pKd with HLA-B*15:03 (setting [12]) is 7.96.
With SQFTCSLAV, the pKd in the experiment with HLA-B*15:03 (setting [12]) was 8.83.
As for FSKKKVCFV, the pKd with HLA-B*08:01 [2] was 8.22; with HLA-B*15:01 [3], 5.73; with HLA-A*30:01, 5.94; with HLA-B*15:03 (setting [12]) it was 4.88; with HLA-A*32:01 (setting [12]) it was at most 4.45.
The sequence VSRLFWYGY had a pKd with HLA-A*29:02 [1] (source organism: Bacillus anthracis str. A0488) of 7.12.
For the sequence DTDPLPVVF, the pKd was 6.63 in the experiment with HLA-A*01:01 (setting [15]) and at most 4.70 in the experiment with HLA-A*29:02 [6] (source organism: Mycobacterium tuberculosis str. Haarlem).
As for IIFMNLYSF, the pKd was 7.97 in the experiment with HLA-B*15:03 (setting [16]) and 8.90 in the experiment with HLA-A*32:01 (setting [16]).
As to SSIIKTFVV, the pKd with HLA-A*68:02 was 7.75.
Regarding GTDSNGMLW, the negative-log Kd (pKd) with HLA-A*01:01 (setting [13]) was 7.13; in the experiment with HLA-A*29:02 [6] (source organism: Mycobacterium tuberculosis H37Rv), at most 4.70.
Regarding AQYASTLSV, the pKd with HLA-B*15:03 (setting [12]) is 9.79.
Consider IAHVRDVVM, for which the pKd with HLA-B*18:01, in the experiment with HLA-B*27:05 (setting [17]), with HLA-A*31:01 (setting [17]), with HLA-B*44:02 (setting [17]), in the experiment with HLA-A*02:01 (setting [17]) and with HLA-B*40:01 (setting [17]) was at most 4.70 throughout. In addition, the pKd with HLA-A*11:01 (setting [17]), with HLA-A*01:01 (setting [17]), in the experiment with HLA-A*69:01 (setting [17]), with HLA-A*03:01 [4] (setting [17]), in the experiment with HLA-B*58:01 (setting [17]) and with HLA-B*48:01 was at most 4.70 throughout. Moreover, the pKd with HLA-B*08:01 [10] (setting [17]) is 6.74; with HLA-A*29:02 [6] (setting [17]), at most 4.70.
Turning to YQTSVSQVA, the pKd with HLA-B*15:03 (setting [12]) was 8.84.
Same read-out and setting: under IKTMMINPF stands 9.72.
For HQAIISDVL, the pKd with HLA-B*07:02 (setting [15]), with HLA-B*27:05 (setting [15]), with HLA-A*31:01 (setting [15]), in the experiment with HLA-B*44:02 (setting [15]), in the experiment with HLA-A*01:01 (setting [15]) and in the experiment with HLA-A*69:01 (setting [15]) was at most 4.70 in each case. Further, the pKd was at most 4.70 with HLA-A*03:01 [4] (setting [15]); 7.37 with HLA-B*39:01 (setting [15]); at most 4.70 with HLA-B*58:01 (setting [15]); at most 4.70 with HLA-B*46:01 (setting [15]); at most 4.70 with HLA-A*29:02 [6] (setting [15]); at most 4.70 with HLA-B*57:01 (setting [15]).
In the case of QQSEARRML, the pKd with HLA-B*07:02 (setting [18]) was 6.40; with HLA-B*27:05 (setting [19]) it was at most 4.70; with HLA-A*31:01 (setting [19]) it was at most 4.70; with HLA-B*44:02 (setting [19]), at most 4.70; in the experiment with HLA-A*26:01 [11], at most 4.70; in the experiment with HLA-A*02:01 (setting [18]), 6.15. The pKd is at most 4.70 with HLA-B*40:01 (setting [19]); at most 4.70 with HLA-A*11:01 (setting [19]); at most 4.70 in the experiment with HLA-A*01:01 (setting [19]); at most 4.70 in the experiment with HLA-A*69:01 (setting [19]); at most 4.70 with HLA-A*03:01 [4] (setting [19]); 5.68 with HLA-B*39:01 (source organism: Yersinia pestis CA88-4125). In addition, the pKd in the experiment with HLA-B*58:01 (setting [19]) is at most 4.70; with HLA-B*08:01 [10] (setting [18]) it was 5.19; with HLA-B*15:01 [5] (setting [18]) it was 6.96.
ILVPNINIL: the pKd with HLA-B*15:03 (setting [12]) was 6.22.
In the case of KVREHTFVK, the pKd with HLA-B*08:01 [2] is at most 4.34; with HLA-B*15:01 [3] it was 5.39; in the experiment with HLA-A*30:01, 8.67; in the experiment with HLA-B*15:03 (setting [12]) it was 4.71; in the experiment with HLA-A*32:01 (setting [12]) it was 6.83.
In the case of YMYIMKLHH, the pKd in the experiment with HLA-A*29:02 [1] (source organism: Mycobacterium leprae) was 7.44.
Consider IKENSIYSF, for which the pKd in the experiment with HLA-B*15:03 (setting [12]) was 8.84.
On to SKYAGINIL, for which the pKd is 4.79 with HLA-B*08:01 [2]; 5.25 in the experiment with HLA-B*15:01 [3]; 6.26 in the experiment with HLA-A*30:01; 9.57 in the experiment with HLA-B*15:03 (setting [12]); 4.79 with HLA-A*32:01 (setting [12]).
Regarding NSYTLLLAY, the pKd with HLA-B*35:01 (setting [19]) is 7.31; with HLA-B*15:01 [8] (setting [19]), 6.17.
For NKVLCISFF, the pKd with HLA-B*15:03 (setting [12]) was 7.38.
